For five substances, stoichiometry N results are on record in PMC11753425.

For assay [1], the target named is Orf13-V164C-Q280C (not stated (Tn916, an ICE widespread in Enterococcus faecalis and other firmicutes)). As to the kind of experiment: SEC-MALS; soluble proteins, Superdex 200 Increase, 50 mM tris-HCl, 100 mM NaCl, pH 8.
Assay [2] deals with OrfGExt (purified, WT) (Streptococcus thermophilus). Put plainly: crystal structure; sitting drop, 20°C; WT in 1.26 M ammonium sulfate, 100 mM sodium cacodylate pH 6.5; A204C-A264C in 40% PEG 300, 100 mM potassium phosphate citrate pH 4.2.
Assay [3] concerns the target OrfGExt-A204C-A264C (Streptococcus thermophilus). As to the kind of experiment: SEC-MALS; soluble proteins, Superdex 200 Increase, 50 mM tris-HCl, 100 mM NaCl, pH 8.
Assay [4] has the same target. As to the kind of experiment: crystal structure; sitting drop, 20°C; WT in 1.26 M ammonium sulfate, 100 mM sodium cacodylate pH 6.5; A204C-A264C in 40% PEG 300, 100 mM potassium phosphate citrate pH 4.2.
The target in assay [5] is full-length OrfG-A204C-A264C (purified) (Streptococcus thermophilus). Put plainly: SEC-MALS; membrane proteins, Superose 6 10/300 Increase, 50 mM tris-HCl pH 8, 300 mM NaCl, 0.1% OGNG.
Assay [6] addresses full-length OrfG-A204C-A264C produced in S. thermophilus (Streptococcus thermophilus). Put plainly: cross-linking; disulfide cross-linking of engineered cysteines in S. thermophilus; membrane fractions with or without DTT, SDS-PAGE, Western blot with Ab-G.

In assay [1], Orf13-V164C-Q280C (domain or fragment) registered a stoichiometry N of 3.

As for “OrfGExt (purified, WT) (domain or fragment)”, the stoichiometry N in assay [2] amounted to 3.

Consider “OrfGExt-A204C-A264C (domain or fragment)”, for which the stoichiometry N in assay [3] and in assay [4] was 3 each time.

“full-length OrfG-A204C-A264C (purified) (natural protein)”: the stoichiometry N in assay [5] came out at 3.

Take “full-length OrfG-A204C-A264C produced in S. thermophilus (natural protein)”: the stoichiometry N in assay [6] was 3.
